The text below walks through data of US20230235012A1 (ALPINE IMMUNE SCIENCES, published 2023).

Residue numbers refer to the chain shown, from its start. Names and notes keep the numbering of the source.

The labels stand for the following.
T1: human ICOS (human, UniProt Q9Y6W8 21-199)
T1 construct: whole, on cells
T1 sequence (looked up): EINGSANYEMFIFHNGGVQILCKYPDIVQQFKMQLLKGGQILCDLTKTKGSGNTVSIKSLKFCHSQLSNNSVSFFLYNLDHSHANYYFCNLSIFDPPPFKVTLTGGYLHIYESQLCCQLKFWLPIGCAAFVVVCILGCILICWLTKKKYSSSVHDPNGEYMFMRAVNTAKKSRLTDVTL

B1: ICOSL ECD N52H/N57Y/Q100R/F172S - AAA - Fc C220S/E233P/L234V/L235A/G236del/S267K (Fc fusion)
chain: DTQEKEVRAMVGSDVELSCACPEGSRFDLNDVYVYWQTSESKTVVTYHIPQHSSLEYVDSRYRNRALMSPAGMLRGDFSLRLFNVTPQDEQKFHCLVLSRSLGFQEVLSVEVTLHVAANFSVPVVSAPHSPSQDELTFTCTSINGYPRPNVYWINKTDNSLLDQALQNDTVSLNMRGLYDVVSVLRIARTPSVNIGCCIENVLLQQNLTVGSQTGNDIGERDKITENPVSTGEKNAATAAAEPKSSDKTHTCPPCPAPPVAGPSVFLFPPKPKDTLMISRTPEVTCVVVDVKHEDPEVKFNWYVDGVEVHNAKTKPREEQYNSTYRVVSVLTVLHQDWLNGKEYKCKVSNKALPAPIEKTISKAKGQPREPQVYTLPPSREEMTKNQVSLTCLVKGFYPSDIAVEWESNGQPENNYKTTPPVLDSDGSFFLYSKLTVDKSRWQQGNVFSCSVMHEALHNHYTQKSLSLSPGK
B2: ICOSL ECD N52H/N57Y/Q100P - AAA - Fc C220S/E233P/L234V/L235A/G236del/S267K (Fc fusion)
chain: B1 chain with R100P, S172F
B3: ICOSL ECD N52H/N57Y/Q100P - AAA - Fc C220S/L234A/L235E/G237A (Fc fusion)
chain: DTQEKEVRAMVGSDVELSCACPEGSRFDLNDVYVYWQTSESKTVVTYHIPQHSSLEYVDSRYRNRALMSPAGMLRGDFSLRLFNVTPQDEQKFHCLVLSPSLGFQEVLSVEVTLHVAANFSVPVVSAPHSPSQDELTFTCTSINGYPRPNVYWINKTDNSLLDQALQNDTVFLNMRGLYDVVSVLRIARTPSVNIGCCIENVLLQQNLTVGSQTGNDIGERDKITENPVSTGEKNAATAAAEPKSSDKTHTCPPCPAPEAEGAPSVFLFPPKPKDTLMISRTPEVTCVVVDVSHEDPEVKFNWYVDGVEVHNAKTKPREEQYNSTYRVVSVLTVLHQDWLNGKEYKCKVSNKALPAPIEKTISKAKGQPREPQVYTLPPSREEMTKNQVSLTCLVKGFYPSDIAVEWESNGQPENNYKTTPPVLDSDGSFFLYSKLTVDKSRWQQGNVFSCSVMHEALHNHYTQKSLSLSPGK
B4: ICOSL ECD N52H/N57Y/Q100R/F172S - AAA - Fc C220S/L234A/L235E/G237A (Fc fusion)
chain: B3 chain with P100R, F172S
B5: ICOSL ECD N52H/N57Y/Q100R/F172S - G4S - Fc C220S/L234A/L235E/G237A (Fc fusion)
chain: DTQEKEVRAMVGSDVELSCACPEGSRFDLNDVYVYWQTSESKTVVTYHIPQHSSLEYVDSRYRNRALMSPAGMLRGDFSLRLFNVTPQDEQKFHCLVLSRSLGFQEVLSVEVTLHVAANFSVPVVSAPHSPSQDELTFTCTSINGYPRPNVYWINKTDNSLLDQALQNDTVSLNMRGLYDVVSVLRIARTPSVNIGCCIENVLLQQNLTVGSQTGNDIGERDKITENPVSTGEKNAATGGGGSEPKSSDKTHTCPPCPAPEAEGAPSVFLFPPKPKDTLMISRTPEVTCVVVDVSHEDPEVKFNWYVDGVEVHNAKTKPREEQYNSTYRVVSVLTVLHQDWLNGKEYKCKVSNKALPAPIEKTISKAKGQPREPQVYTLPPSREEMTKNQVSLTCLVKGFYPSDIAVEWESNGQPENNYKTTPPVLDSDGSFFLYSKLTVDKSRWQQGNVFSCSVMHEALHNHYTQKSLSLSPGK
B6: ICOSL ECD N52H/N57Y/Q100P - G4S - Fc C220S/L234A/L235E/G237A (Fc fusion)
chain: B5 chain with R100P, S172F
B7: ICOSL ECD N52H/N57Y/Q100P - G4S - Fc C220S/E233P/L234V/L235A/G236del/S267K (Fc fusion)
chain: DTQEKEVRAMVGSDVELSCACPEGSRFDLNDVYVYWQTSESKTVVTYHIPQHSSLEYVDSRYRNRALMSPAGMLRGDFSLRLFNVTPQDEQKFHCLVLSPSLGFQEVLSVEVTLHVAANFSVPVVSAPHSPSQDELTFTCTSINGYPRPNVYWINKTDNSLLDQALQNDTVFLNMRGLYDVVSVLRIARTPSVNIGCCIENVLLQQNLTVGSQTGNDIGERDKITENPVSTGEKNAATGGGGSEPKSSDKTHTCPPCPAPPVAGPSVFLFPPKPKDTLMISRTPEVTCVVVDVKHEDPEVKFNWYVDGVEVHNAKTKPREEQYNSTYRVVSVLTVLHQDWLNGKEYKCKVSNKALPAPIEKTISKAKGQPREPQVYTLPPSREEMTKNQVSLTCLVKGFYPSDIAVEWESNGQPENNYKTTPPVLDSDGSFFLYSKLTVDKSRWQQGNVFSCSVMHEALHNHYTQKSLSLSPGK
B8: ICOSL ECD N52H/N57Y/Q100P - no linker - Fc C220S/L234A/L235E/G237A (Fc fusion)
chain: DTQEKEVRAMVGSDVELSCACPEGSRFDLNDVYVYWQTSESKTVVTYHIPQHSSLEYVDSRYRNRALMSPAGMLRGDFSLRLFNVTPQDEQKFHCLVLSPSLGFQEVLSVEVTLHVAANFSVPVVSAPHSPSQDELTFTCTSINGYPRPNVYWINKTDNSLLDQALQNDTVFLNMRGLYDVVSVLRIARTPSVNIGCCIENVLLQQNLTVGSQTGNDIGERDKITENPVSTGEKNAATEPKSSDKTHTCPPCPAPEAEGAPSVFLFPPKPKDTLMISRTPEVTCVVVDVSHEDPEVKFNWYVDGVEVHNAKTKPREEQYNSTYRVVSVLTVLHQDWLNGKEYKCKVSNKALPAPIEKTISKAKGQPREPQVYTLPPSREEMTKNQVSLTCLVKGFYPSDIAVEWESNGQPENNYKTTPPVLDSDGSFFLYSKLTVDKSRWQQGNVFSCSVMHEALHNHYTQKSLSLSPGK
notes: direct fusion, linker 'none'
B9: ICOSL ECD N52H/N57Y/Q100R/F172S - no linker - Fc C220S/L234A/L235E/G237A (Fc fusion)
chain: B8 chain with P100R, F172S
notes: direct fusion, linker 'none'
B10: ICOSL ECD N52H/N57Y/Q100P - no linker - Fc C220S/E233P/L234V/L235A/G236del/S267K (Fc fusion)
chain: DTQEKEVRAMVGSDVELSCACPEGSRFDLNDVYVYWQTSESKTVVTYHIPQHSSLEYVDSRYRNRALMSPAGMLRGDFSLRLFNVTPQDEQKFHCLVLSPSLGFQEVLSVEVTLHVAANFSVPVVSAPHSPSQDELTFTCTSINGYPRPNVYWINKTDNSLLDQALQNDTVFLNMRGLYDVVSVLRIARTPSVNIGCCIENVLLQQNLTVGSQTGNDIGERDKITENPVSTGEKNAATEPKSSDKTHTCPPCPAPPVAGPSVFLFPPKPKDTLMISRTPEVTCVVVDVKHEDPEVKFNWYVDGVEVHNAKTKPREEQYNSTYRVVSVLTVLHQDWLNGKEYKCKVSNKALPAPIEKTISKAKGQPREPQVYTLPPSREEMTKNQVSLTCLVKGFYPSDIAVEWESNGQPENNYKTTPPVLDSDGSFFLYSKLTVDKSRWQQGNVFSCSVMHEALHNHYTQKSLSLSPGK
notes: direct fusion, linker 'None'
B11: ICOSL ECD Truncation #5 with N52H/N57Y/Q100R/C198R, Fc fusion (Fc fusion)
chain: DTQEKEVRAMVGSDVELSCACPEGSRFDLNDVYVYWQTSESKTVVTYHIPQHSSLEYVDSRYRNRALMSPAGMLRGDFSLRLFNVTPQDEQKFHCLVLSRSLGFQEVLSVEVTLHVAANFSVPVVSAPHSPSQDELTFTCTSINGYPRPNVYWINKTDNSLLDQALQNDTVFLNMRGLYDVVSVLRIARTPSVNIGCRIENVLLQQGGGGSGGGGSEPKSSDKTHTCPPCPAPEAEGAPSVFLFPPKPKDTLMISRTPEVTCVVVDVSHEDPEVKFNWYVDGVEVHNAKTKPREEQYNSTYRVVSVLTVLHQDWLNGKEYKCKVSNKALPAPIEKTISKAKGQPREPQVYTLPPSREEMTKNQVSLTCLVKGFYPSDIAVEWESNGQPENNYKTTPPVLDSDGSFFLYSKLTVDKSRWQQGNVFSCSVMHEALHNHYTQKSLSLSPG
notes: not restated for the C198R set

T3 sequence (P16410 36-223): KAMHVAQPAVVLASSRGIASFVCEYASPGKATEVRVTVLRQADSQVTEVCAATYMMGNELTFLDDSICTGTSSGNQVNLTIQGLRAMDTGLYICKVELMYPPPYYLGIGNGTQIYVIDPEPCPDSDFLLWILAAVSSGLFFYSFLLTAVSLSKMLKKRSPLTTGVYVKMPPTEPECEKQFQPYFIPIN

One assay concerns the target T2, human CD28 (human, UniProt P10747 19-220).
T2 construct: whole, on cells
In words: flow cytometry, transfected Expi293 cells. On the technique in general: In flow cytometry, cells or beads pass a laser one at a time.
As for B1, the MFI is 57300 MFI and the “MFI ratio to WT” value came out at 10.9 fold.

In the case of B2, the MFI was 69600 MFI and the “MFI ratio to WT” value was 13.3 fold.

For the molecule B3, the MFI was found to be 68700 MFI and the “MFI ratio to WT” value turned out to be 13.1 fold.

As to B4, the MFI turned out to be 65500 MFI and the “MFI ratio to WT” value stood at 12.5 fold.

With B5, the MFI worked out at 67600 MFI and the “MFI ratio to WT” value stood at 12.9 fold.

Take B6: the MFI turned out to be 69900 MFI and the “MFI ratio to WT” value is 13.4 fold.

Another assay deals with T1, human ICOS. Briefly: flow cytometry, transfected Expi293 cells.
Consider B1, for which the MFI was 104000 MFI and the “MFI ratio to WT” value is 1.3 fold.

In the case of B2, the MFI amounted to 103000 MFI and the “MFI ratio to WT” value was determined as 1.3 fold.

For B3, the MFI worked out at 97100 MFI and the “MFI ratio to WT” value is 1.2 fold.

Consider B4, for which the MFI worked out at 105000 MFI and the “MFI ratio to WT” value was 1.3 fold.

Turning to B7, the MFI turned out to be 93400 MFI.

Regarding B5, the MFI is 107000 MFI and the “MFI ratio to WT” value came out at 1.4 fold.

In the case of B6, the MFI amounted to 104000 MFI and the “MFI ratio to WT” value is 1.3 fold.

Molecule B8 registered an MFI of 97700 MFI.

B9 displayed an MFI of 106000 MFI.

B10: the MFI is 98500 MFI.

Another assay has as its target T3, human CTLA-4 (human, UniProt P16410 36-223).
T3 construct: whole, on cells
In words: flow cytometry, transfected Expi293 cells.
B1: the MFI was 193000 MFI and the “MFI ratio to WT” value was found to be 20.5 fold.

Regarding B2, the MFI is 315000 MFI and the “MFI ratio to WT” value is 33.5 fold.

Consider B3, for which the MFI stood at 171000 MFI and the “MFI ratio to WT” value was 18.2 fold.

On to B4, for which the MFI turned out to be 194000 MFI and the “MFI ratio to WT” value was found to be 20.6 fold.

B7 gave an MFI of 188000 MFI.

Consider B5, for which the MFI amounted to 213000 MFI and the “MFI ratio to WT” value was determined as 22.7 fold.

For the molecule B6, the MFI worked out at 161000 MFI and the “MFI ratio to WT” value was 17.1 fold.

The next assay addresses T2, human CD28. In words: flow cytometry, transfected cells; protein from CHO.
For the molecule B11, the MFI turned out to be 86300 MFI and the “MFI ratio to WT” value turned out to be 50 fold.

Another assay addresses T1, human ICOS. The description is as above.
B11: the MFI was determined as 110000 MFI and the “MFI ratio to WT” value is 1.1 fold.

The next assay addresses T3, human CTLA-4. The assay is described as above.
With B11, the MFI is 216000 MFI and the “MFI ratio to WT” value was found to be 28.5 fold.
